± gives the uncertainty stated by the source.

The nature of the data set: amyloid nucleation score (Sup35N fusion, yeast selection) (log enrichment); library NNK3; higher = more nucleation; inactive = no reads after selection. In a few lines:
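In psi-negative yeast, Sup35N fusions carrying peptides of 20 random codons were induced with 100 μM copper sulfate for 24 hours. The cells then grew 7 days at 30°C on medium lacking adenine and uracil, and plasmid inserts from input and output were Illumina-sequenced, excluding sequences with under 100 input reads. Nucleation score is the DiMSum log enrichment of output over input reads, centred on the mode score of non-aggregating sequences.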
In the case of QYRGCG, the amyloid nucleation score result was “inactive”.

For QYTCDDSCILFCCASWAEWS, the amyloid nucleation score was determined as 2.34 ± 0.081. Under QYTFVGDLMVDLITKTVMLM stands “inactive”; under RAFLPYYAGYEDRTQSWL, “inactive”.

Consider RAGVVVFIRRLRRLMGTLGA, for which the amyloid nucleation score is -0.005 ± 1.1. The same measure for RAHICSYSFAIYVFVCN: 0.661 ± 0.13; for RANSIC: “inactive”; for RAQKVPCVIFSYTWIRSMSD: “inactive”. As for RARMV, the amyloid nucleation score result was “inactive”. The same measure for RARNTKLCNLSVCMTMGPEA: “inactive”; for RASFVLRCFKIDDVVVQFHL: 1.23 ± 0.15. Under RASKRLCWSG stands “inactive”; under RAYMVGCYDCSSYLDPFSYS, “inactive”. The same measure for RAYTDV: “inactive”. For the substance RCFRLIKVLKLLTVFEIITF, the amyloid nucleation score result is “inactive”. For the substance RCLCDPGYCCIFISENWIL, the amyloid nucleation score turned out to be 1.74 ± 0.064. The same measure for RCLSNN: “inactive”. Under RCRCTFYCFRVL stands “inactive”; under RCRKHALLFHRCILGYSVLP, “inactive”; under RCSCLTFVVSTK, 0.424 ± 0.75. Under RCSVVTSFQGICMACKYAGG stands 1.26 ± 0.1; under RCWNKVFLSYQTELI, “inactive”; under RCYALDFRWLILDVSYHGWG, “inactive”. As for RDCCYLTFALVPSHGLLKVK, the amyloid nucleation score entry is “inactive”.

With RDCSSAIYKCTWCMSF, the amyloid nucleation score result is “inactive”.

As to RDFITRSSECSESD, the amyloid nucleation score entry is “inactive”. Under RDGNRVQMVSIPIQVSAMLG stands “inactive”; under RDLKFGWGWMGRTEISWYLF, “inactive”. The same measure for RDNYDAFMIL: “inactive”; for RDQEHSRTFISM: “inactive”. The same measure for RDYLYGNDMSNVKGYRRRWY: “inactive”; for REITSWLDIDFL: “inactive”; for RERVATFQQPTRHGGGSLAS: “inactive”. As for REVPT, the amyloid nucleation score result was “inactive”. Under REWIGLSTYDSA stands “inactive”. RFATGCDYLLRRW: the amyloid nucleation score result is “inactive”. The same measure for RFFLYFNCAWVILMWCKRIV: “inactive”; for RFGDVHDCVVVSNGNLRNES: “inactive”. As to RFISLVRNYFFTCCRRRSMF, the amyloid nucleation score result is “inactive”.

Take RFLLVVMF: the amyloid nucleation score entry was “inactive”. Under RFNFNFFRSRSHLSVFTQFG stands “inactive”; under RFNHMRNGFWRSIS, “inactive”. Under RFRFILRCC stands “inactive”; under RFSSSSQPFYSFAIVRR, “inactive”. Under RFSTQAENGVSIIFNLVCFN stands 2.8 ± 0.082.

In the case of RFSYVVTRSG, the amyloid nucleation score entry was “inactive”. Take RFVTSLYDMLSI: the amyloid nucleation score result is “inactive”. The same measure for RGAGSTESLTNGRGSIAIHR: “inactive”. The same measure for RGANYVFGWKITVNAFEGEC: 0.838 ± 0.14; for RGFFSHWSFDVTHYVLVRTL: “inactive”. With RGIKWWILDFWVDMHTCMFK, the amyloid nucleation score entry was “inactive”. Take RGKYFGCYLSVYSHL: the amyloid nucleation score entry was “inactive”.

RGLHLGSSTWIPTAREC gave an amyloid nucleation score of 0.678 ± 0.19. Under RGQGKHNSRYFCLIT stands “inactive”. The same measure for RGRMLDHGSS: “inactive”; for RGTSSQ: “inactive”; for RGVFLTEEASFIGELSLCSA: “inactive”. The same measure for RGWVPVTVIQWIMIDCQFKA: 2.78 ± 0.054; for RGYEQERLWSSVWHFYNHWL: 0.405 ± 0.23; for RGYGTSDRIAALMWLSRWFQ: “inactive”. RGYRAK returned an amyloid nucleation score of 1.34 ± 0.097. Under RHLTVWLL stands “inactive”; under RHMPYNGLKNDKIFYILNYT, “inactive”; under RHVQG, “inactive”. The same measure for RHVVGCSYNVIGCFYVVLRI: 1.84 ± 0.083. Under RICWSDINWYNRIFLIAELC stands “inactive”; under RIDSMRRMGYLNSIFGCFV, “inactive”. RIFFKVCNVRLSVADFSHYV registered an amyloid nucleation score of 1.99 ± 0.051. The same measure for RIFSFT: “inactive”; for RIGVTYWGICSLKLT: “inactive”. The same measure for RILALCGHRGNGLQGYILLD: 0.744 ± 0.13. Consider RILRVRF, for which the amyloid nucleation score result was “inactive”. The same measure for RILVMVNKG: 0.81 ± 0.17.

Consider RINSRHLLNVLAVRKTIQGS, for which the amyloid nucleation score result is “inactive”. For the substance RIRFKRGVPSVVAHVVLR, the amyloid nucleation score entry was “inactive”. The same measure for RIRGTCMGL: “inactive”; for RISYKVRHTSNLVKTWCYTW: “inactive”. The same measure for RITLSIDLLSSEYNRIAPRR: 1.82 ± 0.089. RITPLDCLSNGRQ: the amyloid nucleation score entry was “inactive”. Under RITSDALG stands “inactive”; under RIVSVFLDNEQISRNGAVSS, -0.425 ± 0.59. The same measure for RIVYCSFTKVG: “inactive”; for RIWPSGSC: “inactive”. With RIYDYFLFSCYRV, the amyloid nucleation score entry is “inactive”. Turning to RIYLA, the amyloid nucleation score entry is “inactive”. Under RKLCINGCVFTAMREFC stands “inactive”.

For RKLSNIYFVIGDGMWGSHGW, the amyloid nucleation score is 2.32 ± 0.06. The same measure for RKYGTLCKGCVL: “inactive”; for RLAFVHKMTLRMSRERYLAI: -0.009 ± 0.35; for RLAGSFKLKSVYKGMLDYLA: 0.819 ± 0.15. Under RLCLFLDPIY stands “inactive”. Under RLCWLNVDHGLLVNPPWGYR stands “inactive”; under RLFSFAIFHENTMLGNCCTM, 2.44 ± 0.063. For the substance RLGFRRIRIIRSSGFSEEWH, the amyloid nucleation score turned out to be 0.224 ± 0.39. The same measure for RLIQTLWIFIKVRSRALVTH: “inactive”; for RLKLNGAQGEFSGVWLDIWA: “inactive”.

In turn, RLLFMIPIMIVMNQHPTMNV registered an amyloid nucleation score of 1.01 ± 0.17. The same measure for RLLHSGRS: “inactive”. Turning to RLLNVLKRYLMVSLQKAGSD, the amyloid nucleation score entry is “inactive”. The same measure for RLNLNVIL: 2.58 ± 0.087; for RLSNVSTMGGMRIPDLLEM: “inactive”. Under RLSRWRRSNFSE stands “inactive”; under RLTWESTMYVKIVGMSYAFG, -0.241 ± 0.36.

RLVMHSRHTMLLHARGLRSR: the amyloid nucleation score result was “inactive”. For RLVNVNDTGVLDVSVITRCS, the amyloid nucleation score was 0.207 ± 0.6. As for RLVPFTWGHIPG, the amyloid nucleation score result was “inactive”. The same measure for RLWTFCFA: “inactive”; for RLYAALMFSSVRLCACVALV: “inactive”. The same measure for RLYLKTDVSDTRHRYMWLSE: “inactive”. Under RLYVSKEFRSA stands “inactive”; under RMAYIENGVDTAACSDLYVL, “inactive”. As for RMCLITTYTRVFLWLHT, the amyloid nucleation score result is “inactive”. Under RMGHWCRVAGSKLLGVV stands -0.131 ± 1.2; under RMGWSTGILCRVDTLFITML, “inactive”. Under RMIASAFFADCEKYVVNNLE stands 0.028 ± 0.43; under RMILNMCCTITDRKCHSVSD, 2.39 ± 0.055.

As to RMKGFEFCCWDQ, the amyloid nucleation score was -0.31 ± 0.55. In turn, RMLLVEYCMFDFPDSFVRCN returned an amyloid nucleation score of 0.131 ± 0.23. Under RMLRNF stands -0.466 ± 1.9. With RMLTHKQIIIRTVWTQYVYI, the amyloid nucleation score result was “inactive”.

For RMPNSTFGVGWETGFQHSQG, the amyloid nucleation score result was “inactive”. The same measure for RMRCAAVRAARAVPATKGEG: “inactive”.

Substance RMRLRVSVILGA displayed an amyloid nucleation score of 0.997 ± 0.11. Under RNFVEANAYSFRLVTVTLSM stands “inactive”; under RNGMISQAYSVP, “inactive”. Under RNGTHCTIDEIYGW stands 0.038 ± 0.58. Under RNISDMEPS stands “inactive”; under RNKLFLINWLFYNCMTWAFH, “inactive”.

As to RNLSKIRMPMVVNNTEY, the amyloid nucleation score entry is “inactive”. The same measure for RNNVPGVEYVLDYLFMLKVM: “inactive”; for RNVQLMVPFTAGVLWVLQCK: “inactive”; for RNVWRCSLPYHFIF: “inactive”.

On to RPAIRSFFVMVSVKLR, for which the amyloid nucleation score result was “inactive”. For the substance RPAWTRTSTVDKLQIELRYE, the amyloid nucleation score entry is “inactive”.
